T1: recombinant HMG1 binding to RAGE-Fc (Homo sapiens, UniProt P09429)
T1 construct: made in house; host or cells: E. coli (HMG1)
T1 sequence (P09429 1-215): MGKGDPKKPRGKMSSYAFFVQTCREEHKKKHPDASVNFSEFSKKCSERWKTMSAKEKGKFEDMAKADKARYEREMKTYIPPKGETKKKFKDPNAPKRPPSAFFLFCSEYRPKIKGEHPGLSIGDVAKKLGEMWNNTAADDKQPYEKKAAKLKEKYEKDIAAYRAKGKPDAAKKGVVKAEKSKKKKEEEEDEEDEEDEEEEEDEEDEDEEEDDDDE

T2: HMG2 (Bos taurus, UniProt P40673)
T2 construct: from tissue; host or cells: calf thymus (as read from the sentence)
T2 sequence (P40673 1-209): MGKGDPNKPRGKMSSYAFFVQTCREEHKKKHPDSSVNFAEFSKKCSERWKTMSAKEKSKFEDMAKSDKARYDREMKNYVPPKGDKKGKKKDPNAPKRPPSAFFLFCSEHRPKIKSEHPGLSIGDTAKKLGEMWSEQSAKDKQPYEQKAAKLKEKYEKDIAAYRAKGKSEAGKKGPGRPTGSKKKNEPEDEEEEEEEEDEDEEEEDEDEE

B1: S17: human anti-HMG1 antibody; VL/VH aa SEQ ID NO: 70/72 (antibody, listed as Homo sapiens, V domains shown)
VH: EVQLLESGGGLVQPGGSLRLSCAASGFTFSYYDMHWVRQAPGKGLEWVSRISPSGGYTWYADSVKGRFTISRDNSKNTLYLQMNSLRAEDTAVYYCTRGRYTSGWHEYFDPWGQGTLVTVSS
VL: AQDIQMTQSPSSLSASVGDRVTITCRASQSIGTYLNWYQQKPGTAPKVLIYAASSLQSGVPSRFSGSGSGTDFTLTISSLQPEDFSTYYCQQSYNTPRTFGQGTKLEIK
B2: G2: human anti-HMG1 IgG1 from Fab phage display library; VL/VH aa SEQ ID NO: 30/32 (antibody, listed as Homo sapiens, V domains shown)
VH: EVQLLESGGGLVQPGGSLRLSCAASGFTFSWYKMQWVRQAPGKGLEWVSGISPSGGSTAYADSVKGRFTISRDNSKNTLYLQMNSLRAEDTAVYYCAKMGLFNTGNSYVDYWGQGTLVTVSS
VL: AQSELTQPPSVSEAPGQRVTISCSGSTSNIGNNAVIWYQQLPGKAPKLLIYYDDLLPSGVSDRFSGSKSGTSGSLAISGLQSEDEADYYCASWDDNLNGPLFGGGTKLTVL

Columns and labels:
[1] = tested on: HMG1 (recombinant, native; immobilized, soluble); assay: Direct and sandwich (capture) ELISA comparing forms of HMG1; format: binding; conditions: two ELISA formats, rHMG1
Procedure: Direct ELISA (immobilized HMG1): Individual wells of a 96-well immunoplate (EIA/RIA plate, High binding, Costar) were coated with HMGB-1 at 5 μg/ml in PBS at 4° C. overnight. The plate was then blocked with 4% milk powder dissolved in PBS at 37° C. for 1 hour. The blocking solution was removed and replaced with human anti-HMG1 antibodies at various concentrations (see FIG. 4A). The plate was then washed (ELX-405 Plate washer, BIO-TEK) and secondary antibody (anti-human IgG-HRP, PIERCE) was added at a final concentration of 1:125,000 at 37° C. for 1 hour. HRP activity was detected with Sureblue HRP substrate (KPL). Plates were read at 450 nm using a Kinetic Microplate Reader (Molecular Devices).
Sandwich ELISA (soluble HMG1): Immunoplates (EIA/RIA plate, High binding, Costar) were coated with anti human IgG Fc at 10 μg/ml in PBS (pH 7.2) and incubated at 4° C. overnight. The coating reagent was removed and the plates were rinsed briefly with PBS. The plates were then blocked with 4% milk for 1 hour at 37° C. and rinsed with PBS. The anti-HMG1 antibodies were diluted in 4% milk. For serial dilutions, the antibodies were used at a starting concentration of 20 μg/ml. The diluted anti-HMG1 antibodies were then added into plate and incubated for 1 hr at 37° C. The plate was then washed 10 times with PBST (PBS/0.1% tween 20) and incubate with antigen (HMGB1, 2 μg/ml; or 0.7 μg/ml for native HMGB1) in 4% milk and incubated at 37° C. for 1 h. The plate was then wash 10 times and incubated with mouse anti-HMGB1, 1 μg/ml in 4% milk at 37° C. for 1 h. The plate was washed 10 times and incubated with anti-mouse IgG-HRP at 1:1000 at 37° C. for 1 h. The plate was then washed and developed. HRP activity was detected with Sureblue HRP substrate (KPL). Plates were read at 450 nm using a Kinetic Microplate Reader (Molecular Devices).

[2] = molecular target: T1, recombinant HMG1 binding to RAGE-Fc; assay: HMG1 binding to RAGE-Ig by ELISA; conditions: at the concentrations tested
Procedure: HMG1 binding to RAGE-Ig by ELISA: 50 μl/well of RAGE-Fc fusion protein at 5 μg/ml in PBS was added to each well of an ELISA plate and incubated overnight at 4° C. The plate was then blocked with 200 μl of 5% milk at 37° C. for 1 hr and washed 3× with PBS/Tween. 50 μl/well of diluted HMGB1 solution. For dose curves, HMGB1 concentrations started at 4 ug/ml in PBS. For antibody blocking the HMGB1 was preincubated in another plate with human anti-HMG1 antibodies or buffer, then transferred to the RAGE-coated plate. The plates were then incubated at room temperature for 2 hours and washed 3×. To detect any HMG1 bound to the immobilized RAGE-Fc a mixture of biotinylated mouse anti-HMG1 mAbs (10D4, 4H11, 3E10 and 5C12) each at 1 ug/ml, total Ab: 4 ug/ml, were added to each well and the plate was incubated for 1 hour at room temperature. The plate was then washed and Strepavidin-HPR was added to each well and incubated 15 min. The plate was then washed 3× and blotted dry. 100 μl of TMB developing agent was added and the plate read at 650 nm. Values were calculated as percent of inhibition with HMG1 alone equal to 0% inhibition. The data in FIG. 9 and summarized in Table 1 represent the average of two separate experiments.

HMG2 = molecular target: T2, HMG2; assay: Binding to HMG1 vs. HMG2 ELISA; set-up: species or system calf; conditions: immobilized antigen
Procedure: Binding to HMG1 vs. HMG2: Ultra high-binding ELISA plates (ThermoLab systems, #3855) were coated with either 5 ug/mL of Calf thymus HMGB1 or HMBG2 diluted in 10 mM Phosphate buffered saline (PBS), pH 7.2 and incubate overnight at 4 degrees. The plates were washed twice with Ca and Mg free PBS and 100 microliters of anti-HMGB1 antibody diluted in 10 mM PBS, pH 7.2+1% bovine serum albumin (BSA) to a final concentration of 10 ug/mL was added to each well and the plates were incubated 1 hour at room temperature. The wells were washed three times with 100 μl of PBS, pH 7.2. HRP labeled goat-anti-human IgG Kappa-chain (KPL, #14-10-10) and goat-anti-human IgG Lambda-chain (KPL, #14-10-11) were diluted in 10 mM PBS+1% BSA 1:1000 and 100 μl were added to each well and incubated for 1 hour at room temperature. The wells were then washed three times with 100 μl of PBS, pH 7.2. OPD substrate (Pierce chemical company, #34006) was prepared following the manufacturers instructions and 100 μl of prepared substrate was added to each well and the plates incubated at room temperature in the dark for 20-30 minutes. The reaction was stopped with the addition of 100 μl of 2M H2SO4, and the plates read on a plate reader at a wavelength of 490 nm.

[3] = Differential scanning calorimetry; format: physicochemical; set-up: unit: °C; conditions: in °C (unit assumed)
Procedure: Differential Scanning Calorimetry: Thermal melting temperatures (Tm) were measured with a VP-DSC (MicroCal, LLC) using a scan rate of 1.0° C./min and a temperature range of 25-120° C. A filter period of 8 seconds was used along with a 5 minute pre-scan thermostating. Samples were prepared by dialysis into 25 mM Histidine-HCl, pH 6 using Pierce dialysis cups (3.5 kD). Average Mab concentrations were 50 μg/mL as determined by A280. Melting temperatures were determined following manufacturer procedures using Origin software supplied with the system. Briefly, multiple baselines were run with buffer in both the sample and reference cell to establish thermal equilibrium. After the baseline was subtracted from the sample thermogram, the data were concentration normalized and fitted using the deconvolution function.

| Molecule | binding to immobilized versus soluble HMG1 [1] | block of recombinant HMG1 binding to RAGE [2] | relative binding to HMG1 and HMG2 (HMG2) | Tm [3] |
| --- | --- | --- | --- | --- |
| B1 | to a lesser extent S17 have a higher affinity for soluble HMG1 | do not at the concentrations tested | specific for HMG1 | 90.0 |
| B2 | little difference in binding to immobilized or soluble HMG1 | significant ability to block the binding of HMG1 to RAGE | specific for HMG1 | 67.1 |

From patent US20080311122A1, “Antagonists of Hmgb1 and/or Rage and Methods of Use Thereof” (Medimmune, LLC, priority 2005, published 2008)
